In patent publication US7963935B2, “Microprojection array having a beneficial agent containing coating” (Alza Corporation, priority 2001, dated 2011):
Where a name gives a salt, the structure may show the parent alone.

What was measured:
[1] = Dry film/coating on titanium foil: inspection and redissolution/rehydration in water; assay type: physicochemical
Description: In order to test the ability of aqueous albumin solutions to form solid coatings on titanium microprojections, a coated microprojection array was prepared in the following manner. […] To aliquots of these solutions, fluorescein, a marker added for subsequent visualization of the dried coating, was added at a final concentration of 1 millimolar. A 1-microliter drop of this solution was spread on titanium foil having an area of about one centimeter square. The solution was allowed to dry at room temperature for about 1 hour.
A coated microprojection array was prepared in the following manner. […] To this suspension, fluorescein, a marker added for subsequent visualization, was added at a final concentration of 1 millimolar. A 1 microliter drop of this suspension was spread on titanium foil having an area of 1 square centimeter and allowed to dry at room temperature for about an hour.
To 50 microliters of this solution, 50 microliters of a 40 percent by weight aqueous solution of lidocaine HCl was added. A control solution containing no albumin was also prepared. 1-microliter drops of these solutions were spread on titanium foil having an area of approximately 1 square centimeter. The solutions were allowed to air dry at room temperature for about 1 hour.

[2] = hGH delivery studies with tip-coated microprojection arrays; plasma hGH by ELISA, compared with subcutaneous injection; assay type: in vivo, hairless guinea pigs; details: for Cmax / tmax: plasma hGH
Description: An aqueous solution containing 20 wt % human growth hormone (20 wt % hGH), and 20 wt % sucrose was prepared. […] The tips of the microprojections were coated with this solution by passing the arrays over a rotating drum carrying the hGH/sucrose solution using the method and apparatus disclosed in U.S. Patent Application Ser. No. 60/276,762 filed Mar. 16, 2001. Four successive coatings were performed on each microprojection array at 4° C. The amount of protein coated on the arrays was evaluated by total protein assay. An average of 9.5±0.9 μg of hGH was coated per array. […] On the microprojection itself, the coating was found unevenly distributed. Most of the solid coating appeared to be located in caps centered on the geometric center of the faces of the coated area of the microprojections. […] The maximum measured thickness of the coating was about 4 μm while the average calculated thickness over the entire coated area was only about 1.7 μm. Overall, the coating presented good aerodynamics and good adhesion, consistent with minimum effect on penetration of the microprojections into the skin and minimal removal of the drug from the microprojection during penetration.
Some of the hGH tip-coated arrays were subsequently used for drug delivery studies in hairless guinea pigs. The application of the coated microprojection arrays was done using an impact applicator (total energy=0.4 Joules, delivered in less than 10 milliseconds) using a spring-driven impact applicator or the type disclosed in U.S. Patent Application Ser. No. 60/240,307 filed Oct. 13, 2000. The arrays were left on the skin after application for 5 seconds, 5 minutes, or 1 hour, in groups of three animals. Blood was collected at time intervals for plasma hGH determination by ELISA. […] On average, 5 μg of hGH was delivered in each animal, which accounts for approximately 50% of the coated dose. […] Finally, the 5 minute wearing time group had the smallest CV (30%), which is even smaller than that observed following subcutaneous injection (50%).

Compound: CCN(CC)CC(=O)Nc1c(C)cccc1C [lidocaine HCl]
- nature of dried film (hygroscopicity, suitability for storage) ([1]; control solution without albumin): very hygroscopic film unsuitable for subsequent storage

Compound: Cyclosporin A [CSA]
- release of drug particles from dry albumin coating following rehydration ([1]; CSA suspension in 20 wt% human albumin, dried on titanium foil, particles 1 to 25 micrometers): freed readily following rehydration

Compound: human growth hormone [hGH]
- hGH delivery versus wearing time ([2]; arrays left on skin 5 seconds, 5 minutes or 1 hour): the same at all wearing times
- amount of hGH delivered in each animal (average) ([2]; hGH/sucrose tip-coated microprojection array, impact applicator, hairless guinea pigs, all wearing times): 5 µg
- Cmax ([2]; microprojection administration): 13 ng/mL
- tmax ([2]; microprojection administration): 30 min
- hGH delivered as fraction of the coated dose ([2]; microprojection array, hairless guinea pigs): approximately 50%
- fraction of the coated dose delivered into the skin ([2]; microprojection array, assuming bioavailability similar to subcutaneous (65%)): about 80%
- bioavailability ([2]; subcutaneous administration): 65%
- Cmax ([2]; subcutaneous injection): 5 ng/mL
- tmax ([2]; subcutaneous injection): 60 min
